# Reference: patent US10202593B2, “Evolved sortases and uses thereof” (President and Fellows of Harvard College, priority 2013, dated 2019)
# Columns and labels:
# [1] = test system: SUMO-TEV site-FGF1-LPESG-His6; assay: FGF dual labeling / circularization of GGG-FGF-LPESG; type: biochemical; conditions: 0.2 eq enzyme, 10 or 100 μM Btn-LAETG, 4 hours
# Procedure: SUMO-TEV site-FGF1-LPESG-His6 (SEQ ID NO: 27), 0.5 eq TEV protease, and either 0.2 eq eSrtA or eSrtA(2A-9) were incubated in the presence of 10 or 100 μM Btn-LAETG (SEQ ID NO: 5) for 4 hours. The protein contains a GGG near its N-terminus masked by a TEV protease cleavage site, and a LPESG (SEQ ID NO: 3) near its C-terminus to serve as a substrate for downstream conjugation. In situ digestion of the TEV cleavage site exposes an N-terminal GGG, which in theory can serve as the substrate for subsequent conjugation with an LAETG-containing peptide (SEQ ID NO: 5). […] His6: SEQ ID NO: 6.
# SUMO-TEV-FGF-LPESG-His6 (SEQ ID NO: 27) conjugates were treated with 0.2 eq eSrtA(4S-9), 1 mM GGG-PEG and 10 mM CaCl2 in TBS and incubated at room temperature at 500 μL final volumes. These samples were then quenched by the addition of 100 μM H2N-LPESGG (SEQ ID NO: 38) peptide and 100 μL of pre-equilibrated Ni-NTA resin slurry in TBS, then incubated on ice for 15 minutes. This mixture was then passed through a 0.2 μm spin filter, diluted 1:10 into PBS+10 μM H2N-LPESGG (SEQ ID NO: 38) peptide, and concentrated against a 10 kDa MWCO spin concentrator to a final volume of 400 μL. This process was repeated five times to afford the crude SUMO-TEV-FGF-LPESGGG-PEG (SEQ ID NO: 39) conjugates. […] Protein concentrations were determined by BCA assay. […]
# [2] = Differential scanning fluorimetry for thermal melting curves; type: physicochemical
# Procedure: FIGS. 25A-C show thermal melting curves for eSrtA variants. Each protein was freshly expressed and purified, then diluted to 40 μM in 100 mM Tris pH 7.5, 500 mM NaCl. Differential scanning fluorimetry was performed using the Life Technologies Protein Thermal Shift™ Dye kit according to manufacturers' instructions. Thermal scanning was performed on Biorad CFX96-Real Time PCR (25° C. to 99° C., 0.2° C./2s increments). To calculate Tm, fluorescence intensity was fit to the Boltzmann equation using Microsoft Excel using the Solver add-in. Melting curves were plotted with best-fit fluorescence intensities that were normalized to maximum fluorescence intensity. Tm values are shown with their standard deviations as determined from three technical replicates.
# To determine thermal stability of eSrtA, eSrtA(2A-9), eSrtA(4S-9), and variants thereof, each protein was freshly expressed and purified, then diluted to 40 μM in 100 mM Tris pH 7.5, 500 mM NaCl. Differential scanning fluorimetry was performed using the Life Technologies Protein Thermal Shift™ Dye kit according to manufacturers' instructions. […] To calculate Tm, fluorescence intensity was fit to the Boltzmann equation using Microsoft Excel using the Solver add-in. Melting curves were plotted with best-fit fluorescence intensities that were normalized to maximum fluorescence intensity.
Molecule,circularization of GGG-FGF-LPESG [1],ΔTm compared to eSrtA [2]
eSrtA (protein) QAKPQIPKDKSKVAGYIEIPDADIKEPVYPGPATREQLNRGVSFAEENESLDDQNISIAGHTFIDRPNYQFTNLKAAKKGSMVYFKVGNETRKYKMTSIRNVKPTAVEVLDEQKGKDKQLTLITCDDYNEETGVWETRKIFVATEVK,resulting in circularization,
"eSrtA(4S-9): P94R, N98D, S102C, A104V, A118T, F122A, K134R, F144L, D160N, D165A, I182V, E189F, K190E, K196T (protein) QAKPQIPKDKSKVAGYIEIPDADIKEPVYPGPATREQLDRGVCFVEENESLDDQNISITGHTAIDRPNYQFTNLRAAKKGSMVYLKVGNETRKYKMTSIRNVKPTAVEVLDEQKGKDKQLTLVTCDDYNFETGVWETRKIFVATEVK",,~4.4 °C
"eSrtA(2A-9): P94R, S102C, A104H, E105D, K138P, K152I, N160K, K162H, T164N, D165A, K173E, I182V, K190E, T196S (protein) QAKPQIPKDKSKVAGYIEIPDADIKEPVYPGPATREQLNRGVCFHDENESLDDQNISIAGHTFIDRPNYQFTNLKAAKPGSMVYFKVGNETRIYKMTSIRKVHPNAVEVLDEQEGKDKQLTLVTCDDYNEETGVWESRKIFVATEVK",does not generate detectable levels of circularized GGG-FGF protein,~4.4 °C
